This note sets out measurements from doi:10.1101/2022.06.30.498311 (bioRxiv, 2022).

The series concerns the molecule itself. Put plainly: crystal structure.

B1: Sul1 (enzyme, UniProt P0C002 1-269, looked up)
chain: MVTVFGILNLTEDSFFDESRRLDPAGAVTAAIEMLRVGSDVVDVGPAASHPDARPVSPADEIRRIAPLLDALSDQMHRVSIDSFQPETQRYALKRGVGYLNDIQGFPDPALYPDIAEADCRLVVMHSAQRDGIATRTGHLRPEDALDEIVRFFEARVSALRRSGVAADRLILDPGMGFFLSPAPETSLHVLSNLQKLKSALGLPLLVSVSRKSFLGATVGLPVKDLGPASLAAELHAIGNGADYVRTHAPGDLRSAITFSETLAKFRSR
In the case of B1, the binding result is given as “binds”.
